For experiment [1], the target named is T1, CADM1, endogenous in H929 multiple myeloma cells (human, UniProt Q9BY67 45-442).
T1 construct: Native protein on H929 cells (flow cytometry, siRNA knockdown) and in H929 lysates (IP/MS); RPMI-8226 cells were used for sorting with HW-97; also called IGSF4A
T1 sequence: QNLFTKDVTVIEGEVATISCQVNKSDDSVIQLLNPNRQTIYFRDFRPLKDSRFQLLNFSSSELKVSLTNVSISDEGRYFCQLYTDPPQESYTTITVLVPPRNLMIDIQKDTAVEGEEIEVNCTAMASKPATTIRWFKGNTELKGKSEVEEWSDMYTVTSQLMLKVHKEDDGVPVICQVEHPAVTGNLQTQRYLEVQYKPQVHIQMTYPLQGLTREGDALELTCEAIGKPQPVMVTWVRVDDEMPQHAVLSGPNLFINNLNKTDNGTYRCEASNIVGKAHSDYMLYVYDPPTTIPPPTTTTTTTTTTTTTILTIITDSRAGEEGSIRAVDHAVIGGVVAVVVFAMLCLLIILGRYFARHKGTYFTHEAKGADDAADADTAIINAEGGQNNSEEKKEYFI
The experiment is described as follows: flow cytometry, H929 + vehicle; None 513. In general terms: Flow cytometry measures light scatter and fluorescence of single cells or particles in a stream.

The target of experiment [2] is T1, CADM1, endogenous in H929 multiple …. The experiment is described as follows: flow cytometry, H929 + NT Green siRNA; None 1.35.
Experiment [3] deals with T2, PTPRG, endogenous in H929 multiple myeloma cells (human, UniProt P23470 20-1445).
T2 construct: Native protein on H929 cells (flow cytometry, siRNA knockdown) and in H929 lysates (IP/MS); also called phosphatase receptor type γ
Put plainly: IP from H929 cell lysate, LC-MS/MS, heatmap. The protocol: (§1) Immunoprecipitation. […] After 30 min of rocking at 4° C., and lysates were centrifuged at 18,400×g for 20 min at 4° C. Subsequently, 1-mL aliquots of the supernatants were pre-cleared twice with Protein G agarose (Thermo Fisher Scientific) by adding 50 μL of 50% resin slurry and incubating 30 min with end-over-end tumbling at 4° C., followed by centrifugation at 16,000×g for 5 min and pooling of the pre-cleared cell lysate aliquots. Representative mAbs from each cluster were immobilized on Protein G agarose at a ratio of 25 μg IgG1 per 30 μL of 50% slurry, diluted to 500 μL with Dulbecco's PBS (DPBS) and incubated for 1 h at 4° C. with tumbling, followed by centrifugation at 5,000×g for 30 s and 2 washes with lysis buffer. After the last wash, the ˜15 μL of IgG1-coated resin was blocked with 10 μL of 10% BSA (MilliporeSigma). Next, 1 mL of the pooled pre-cleared cell lysate was added to the IgG1-coated resin and incubated for 3 h at 4° C. with tumbling. The immune complexes were pelleted by centrifugation at 2,500×g at 4° C. for 30 s, and gently resuspended to wash for 3 min in 1 mL of lysis buffer, which was repeated once with lysis buffer and twice with an identical wash buffer lacking Triton X-100. Finally, the immune complexes were eluted from the resin with three batch-wise steps using 30 μL of elution buffer (6 or 8 M urea (MilliporeSigma), 20 mM Tris-HCl pH 7.5, and 100 mM NaCl) and incubating 15 min at RT with 450 rpm orbital agitation. Finally, 16 μL of the eluate (˜20%) was analyzed on a reducing SDS-PAGE gel stained with SYPRO Ruby dye (Bio-Rad Laboratories), while the rest was stored at −80° C. prior to LC-MS/MS analysis.
(§2) Protein elutions in 6 or 8 M urea were reduced with 15 mM dithiothreitol at 56° C. for 30 min followed by alkylation with 30 mM iodoacetamide in the dark at RT. The elutions were then diluted to 1 M urea with 50 mM ammonium bicarbonate pH 7.8 and digested overnight at 37° C. following the addition of 4 μg trypsin (Promega).

Experiment [4] addresses T3, ICAM1, endogenous in H929 multiple myeloma cells (human, UniProt P05362 28-532).
T3 construct: Native protein on H929 cells (flow cytometry, siRNA knockdown) and in H929 lysates (IP/MS); also called CD54
The experiment is described as follows: IP from H929 cell lysate, LC-MS/MS, heatmap. The protocol:
as §1, §2

The text below walks through data of patent US20260049134A1 (UNIVERSITY OF FLORIDA RESEARCH FOUNDATION, published 2026).

T2 sequence (P23470 20-1445 limits assumed): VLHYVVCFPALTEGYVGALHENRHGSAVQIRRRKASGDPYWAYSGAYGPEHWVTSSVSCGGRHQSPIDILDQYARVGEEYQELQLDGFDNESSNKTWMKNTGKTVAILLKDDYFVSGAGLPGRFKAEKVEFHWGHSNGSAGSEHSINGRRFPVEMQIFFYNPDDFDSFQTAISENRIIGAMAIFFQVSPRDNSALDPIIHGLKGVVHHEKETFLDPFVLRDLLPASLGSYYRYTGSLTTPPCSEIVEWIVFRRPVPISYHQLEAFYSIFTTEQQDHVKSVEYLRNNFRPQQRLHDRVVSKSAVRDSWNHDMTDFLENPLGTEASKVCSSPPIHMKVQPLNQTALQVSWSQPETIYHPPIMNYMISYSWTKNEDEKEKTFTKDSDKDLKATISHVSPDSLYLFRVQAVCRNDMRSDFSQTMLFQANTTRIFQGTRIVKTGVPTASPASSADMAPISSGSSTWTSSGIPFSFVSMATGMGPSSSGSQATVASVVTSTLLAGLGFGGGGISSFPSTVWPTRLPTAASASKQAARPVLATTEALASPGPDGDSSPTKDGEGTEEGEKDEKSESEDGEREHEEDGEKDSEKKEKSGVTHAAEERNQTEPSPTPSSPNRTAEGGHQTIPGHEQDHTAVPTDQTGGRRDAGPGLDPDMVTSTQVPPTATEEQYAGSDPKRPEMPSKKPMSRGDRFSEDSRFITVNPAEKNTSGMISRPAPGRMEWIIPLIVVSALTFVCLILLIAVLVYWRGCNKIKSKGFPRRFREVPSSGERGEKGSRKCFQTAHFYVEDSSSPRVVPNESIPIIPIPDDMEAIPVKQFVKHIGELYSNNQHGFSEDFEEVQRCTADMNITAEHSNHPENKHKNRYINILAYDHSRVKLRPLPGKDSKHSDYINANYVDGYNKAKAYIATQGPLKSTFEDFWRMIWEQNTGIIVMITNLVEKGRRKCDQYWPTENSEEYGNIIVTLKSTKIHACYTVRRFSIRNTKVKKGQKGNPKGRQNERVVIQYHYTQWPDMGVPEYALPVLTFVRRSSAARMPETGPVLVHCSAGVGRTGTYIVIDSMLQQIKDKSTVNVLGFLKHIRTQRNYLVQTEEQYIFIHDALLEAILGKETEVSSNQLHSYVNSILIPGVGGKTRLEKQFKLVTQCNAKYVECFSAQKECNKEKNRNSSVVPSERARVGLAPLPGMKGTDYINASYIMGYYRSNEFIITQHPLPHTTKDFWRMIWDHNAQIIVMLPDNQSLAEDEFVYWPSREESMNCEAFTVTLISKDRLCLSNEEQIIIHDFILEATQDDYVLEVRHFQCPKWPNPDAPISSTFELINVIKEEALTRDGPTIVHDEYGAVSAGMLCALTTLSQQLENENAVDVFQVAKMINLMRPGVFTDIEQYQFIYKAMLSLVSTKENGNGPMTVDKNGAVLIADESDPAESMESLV
T3 sequence (P05362 28-532 limits assumed): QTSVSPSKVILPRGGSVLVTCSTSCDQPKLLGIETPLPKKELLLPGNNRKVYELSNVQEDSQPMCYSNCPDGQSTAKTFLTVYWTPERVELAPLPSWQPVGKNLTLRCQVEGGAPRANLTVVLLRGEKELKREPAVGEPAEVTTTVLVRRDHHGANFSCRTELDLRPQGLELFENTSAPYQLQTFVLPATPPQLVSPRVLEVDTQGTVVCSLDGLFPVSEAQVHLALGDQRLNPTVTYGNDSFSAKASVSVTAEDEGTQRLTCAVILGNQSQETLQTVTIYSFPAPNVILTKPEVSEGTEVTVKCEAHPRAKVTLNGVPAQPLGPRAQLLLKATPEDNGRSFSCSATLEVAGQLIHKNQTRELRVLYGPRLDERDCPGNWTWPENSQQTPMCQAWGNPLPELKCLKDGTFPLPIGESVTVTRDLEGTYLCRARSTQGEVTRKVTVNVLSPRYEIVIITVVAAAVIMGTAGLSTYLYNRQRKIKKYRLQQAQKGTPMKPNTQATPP

B1: HW-101 chimeric rabbit-human IgG1 LA/LA/PG (antibody, V domains shown)
VH: QEQLVESGGRLVTPGTPLTLTCKASGFSLGKYDMSWVRQAPGKGLEWIGTIYAGSGSTWYASWAKGRFTISKTSTTVDLKMTSLTTEDTATYFCARDFLGVNSIWGPGTLVTISS
VL: SFVLTQPASVQVNLGQTVSLTCTADTLSRSYASWYQQKPDQAPVLLIHRDTSRPSGVPDRFSGSNSGNTATLTISGAQAGDEADYYCATSDGSGSNFHFVFGGGTQLTVTG
notes: Fc-silenced (L234A/L235A/P329G) IgG1, lambda; Alexa Fluor 647-labeled in single-step flow cytometry; Cluster C-97
As to B1, in experiment [1], the “mAb binding (MFI)” value was determined as 5940. Further, in experiment [2], the “Cells stained (%)” value turned out to be 94.3%. The binding result in experiment [3] and in experiment [4] was “no binding” throughout.
